Reference: patent US20210221908A1 (LAMKAP BIO BETA, published 2021)
Residue numbers refer to the chain shown, from its start. One block for each binder: values may come before it.

Experiments:
[1] = molecular target: T1, human CEACAM5 on MKN-45 cells (human, UniProt P06731 35-685); assay: flow cytometry on MKN45 CEA+ cancer cells (also carry CD47)
T1 construct: endogenous CEA of MKN-45 gastric adenocarcinoma cells, which also carry CD47 and CEACAM6; UniProtKB P06731; also called CD66e
T1 sequence: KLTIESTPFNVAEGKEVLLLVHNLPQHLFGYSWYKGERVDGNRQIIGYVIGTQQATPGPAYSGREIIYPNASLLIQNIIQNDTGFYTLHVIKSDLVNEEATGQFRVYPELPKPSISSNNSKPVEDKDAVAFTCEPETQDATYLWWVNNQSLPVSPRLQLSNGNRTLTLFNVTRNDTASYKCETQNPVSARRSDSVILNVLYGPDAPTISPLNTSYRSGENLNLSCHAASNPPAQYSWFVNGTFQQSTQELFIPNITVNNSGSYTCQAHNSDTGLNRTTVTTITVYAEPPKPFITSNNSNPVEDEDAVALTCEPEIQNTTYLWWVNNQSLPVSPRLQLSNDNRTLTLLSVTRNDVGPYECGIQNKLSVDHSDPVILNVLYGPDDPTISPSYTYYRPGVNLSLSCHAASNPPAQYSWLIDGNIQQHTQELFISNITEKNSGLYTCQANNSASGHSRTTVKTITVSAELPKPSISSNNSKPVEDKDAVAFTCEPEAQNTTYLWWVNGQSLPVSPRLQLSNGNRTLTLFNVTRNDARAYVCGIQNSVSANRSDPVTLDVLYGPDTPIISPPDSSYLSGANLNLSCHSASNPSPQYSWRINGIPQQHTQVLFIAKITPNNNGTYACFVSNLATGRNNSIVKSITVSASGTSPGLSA
Protocol: (§1) Cells are harvested, counted, checked for viability and resuspended at 3×10⁶ cells/ml in FACS buffer (PBS 2% BSA, 0.1% NaN3). 100 μl of the cell suspension are distributed in V-bottom 96-well plates (3×10⁵ cells/well). The supernatant is removed by centrifugation 3 minutes at 4° C., 1300 rpm. Increasing concentrations of the antibody according to the invention are then added into the wells and incubated for 15 minutes at 4° C. Cells are washed twice with cold FACS buffer and re-incubated for further 15 minutes at 4° C. with the PE (R-phycoerythrin)-conjugated mouse anti-human IgG Fc secondary antibody (SouthernBiotech, pre-diluted 1:100 in FACS buffer). Cells are washed twice with cold FACS buffer and resuspended in 300 μl FACS buffer with 1:15000-diluted SytoxBlue (Life Technologies). Fluorescence is measured using a Cytoflex […]. Binding curves and EC50 values are obtained and calculated using GraphPad Prism? software. In the same manner binding of MAB CEA or MAB CEA1 to MKN-45 cells can be tested.

[2] = molecular target: T2, human CD47 on MKN45 cells (human, UniProt Q08722 19-323); assay: inhibition of SIRPα-mouseFc binding to CD47 on MKN45 cells, imaging (CX5); column 'SIRPα inhibition potency'
T2 construct: whole, on cells; also called IAP
From the text: Experimental set-up for the measurement of the SIRPα inhibition potency data shown for bispecific antibodies of this invention (results see table 2):
The detection of bound SIRPα cell-based assay monitoring the interaction of soluble SIRPα with human CD47 expressed at the surface of MKN45 is used for the detection of the blocking activity. Dose-response experiments with bispecific antibodies according to the invention allow determination of an IC50 value.
MKN45 cancer cells, expressing both CD47 and CEACAM5, are stained with CFSE violet to allow the imaging system (CX5) to detect the cells. Briefly, 3,000 stained MKN45 cells per well are seeded in a 384 optical well plate (Costar) and incubated for 50 minutes with increased concentrations of bispecific antibodies of the invention (1.9 pM to 333 nM, in quadruplicates). Then, a fixe concentration of SIRPα—mouseFc premixed with anti-mouse IgG-Fc AF647 coupled antibody (Jackson Immunoresearch diluted 1:2000) is added at 50 ng/mL final. After an incubation of 3H30 plates are acquired with the imaging system (CX5, Thermofisher) and fluorescence signals emitted by the detected bound SIRPα is recorded by the software dedicated to the imaging system. Fluorescence signals are plotted according to the dose range tested and IC50 are calculated by the software (Prism, Graphpad).

[3] = molecular target: T3, commercial shed CEA (BioRad) (human, UniProt P06731 35-685, limits assumed); assay: cell-based or functional assay
T3 sequence: T1 sequence

[4] = molecular target: T1, human CEACAM5 on MKN-45 cells; assay: flow cytometry (FACS) on MKN-45 cells, without shed CEA
[5] = molecular target: T1, human CEACAM5 on MKN-45 cells; assay: flow cytometry on MKN45 CEA+ cancer cells (also carry CD47); MKN45 CEA+ cancer cells
Protocol: as §1

[6] = molecular target: T4, human CEACAM6 on MKN-45 cells (human, UniProt P40199 35-320); assay: statement in the legend of FIG. 21A (FACS on MKN-45 cells)
T4 construct: whole, on cells
T4 sequence (looked up): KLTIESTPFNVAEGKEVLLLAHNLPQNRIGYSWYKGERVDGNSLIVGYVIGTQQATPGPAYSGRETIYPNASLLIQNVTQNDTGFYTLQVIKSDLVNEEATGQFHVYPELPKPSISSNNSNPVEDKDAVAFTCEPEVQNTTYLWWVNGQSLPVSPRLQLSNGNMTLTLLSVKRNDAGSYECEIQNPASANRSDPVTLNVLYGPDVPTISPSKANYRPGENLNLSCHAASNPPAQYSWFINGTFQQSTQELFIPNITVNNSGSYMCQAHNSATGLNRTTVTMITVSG
Protocol: (§2) Binding to target cells (MKN-45) expressing CD47, CEACAM5 and CEACAM6 was assessed by FACS.
as §1

[7] = molecular target: T1, human CEACAM5 on MKN-45 cells; assay: flow cytometry (FACS) on MKN-45 cells, which express CD47, CEACAM5 and CEACAM6
[8] = molecular target: T4, human CEACAM6 on MKN-45 cells; assay: legend of FIG. 21A, FACS on MKN-45 cells
Protocol: as §2, §1

[9] = molecular target: T1, human CEACAM5 on MKN-45 cells; assay: flow cytometry (FACS) on MKN-45 cells, which express CD47, CEACAM5 and CEACAM6; the legend says K2AC39 binds CEACAM5 and CEACAM6, and the curve does not separate the two

B3: K2AC5 CEAxCD47 bispecific antibody (bispecific antibody, human IgG1, kappa, lambda)
heavy: not shown
light 1: not shown
light 2: QSVLTQPPSVSAAPGQKVTISCSGSSSNIGYGLVSWYQQLPGTAPKLLIYAGNLRPSGIPDRFSGSKSGTSATLGITGLQTGDEADYYCGTWDFNYGVVFGGGTKLTVLGQPKAAPSVTLFPPSSEELQANKATLVCLISDFYPGAVTVAWKADSSPVKAGVETTTPSKQSNNKYAASSYLSLTPEQWKSHRSYSCQVTHEGSTVEKTVAPTECS
notes: kappa-lambda body, human IgG1, common heavy chain; CD47 arm light chain KA3 (K2), CEA arm light chain 1D9 (AC5)
- shift of EC50 of the phagocytosis index curve of MKN-45 cells by 200 ng/mL shed CEA (FIG. 20B) [3]: < 4 fold
- EC50 (read off the curve) [4]: ~0.3 µg/mL
- EC50 [5]: 11.3 nM
- IC50 [2]: 0.4 nM

B6: K2AC26 CEAxCD47 bispecific antibody (bispecific antibody, human IgG1, kappa, lambda)
heavy: not shown
light 1: not shown
light 2: QSALTQPASVSGSPGQSITISCTGTSSDVKYANAVSWYQQHPGKAPKLMIYSNSIRPSGVSNRFSGSKSGNTASLTISGLQAEDEADYYCSSYDPRGNLLIRVFGGGTKLTVLGQPKAAPSVTLFPPSSEELQANKATLVCLISDFYPGAVTVAWKADSSPVKAGVETTTPSKQSNNKYAASSYLSLTPEQWKSHRSYSCQVTHEGSTVEKTVAPTECS
notes: kappa-lambda body, human IgG1, common heavy chain; CEA arm light chain 2F7 (AC26)
- EC50 [1]: 12.7 nM
- IC50 [2]: 0.32 nM

B9: K2AC39 CD47xCEA bispecific antibody (bispecific antibody, human IgG1, kappa, lambda)
heavy: not shown
light 1: not shown
light 2: QSVLTQPPSVSAAPGQKVTISCSGSSSEITASGVSWYQQLPGTAPKLLIYDNNKRPSGIPDRFSGSKSGTSATLGITGLQTGDEADYYCGTWDFPPSRFVFGGGTKLTVLGQPKAAPSVTLFPPSSEELQANKATLVCLISDFYPGAVTVAWKADSSPVKAGVETTTPSKQSNNKYAASSYLSLTPEQWKSHRSYSCQVTHEGSTVEKTVAPTECS
notes: K2 = KA3 CD47 light chain, AC39 = 1B2 CEA light chain
- binding result [8]: binds
- EC50 (read off the curve) [9]: ~3 µg/mL

B10: K2AC18 CEAxCD47 bispecific antibody (bispecific antibody, human IgG1, kappa, lambda)
heavy: not shown
light 1: not shown
light 2: SYVLTQPPSVSVAPGKTARITCGGNGIGDASVHWYQQKPGQAPVLVIYSTTTRPSGIPERFSGSNSGNTATLTISRVEAGDEADYYCQVWDGFGPRHRAVFGGGTKLTVLGQPKAAPSVTLFPPSSEELQANKATLVCLISDFYPGAVTVAWKADSSPVKAGVETTTPSKQSNNKYAASSYLSLTPEQWKSHRSYSCQVTHEGSTVEKTVAPTECS
notes: kappa-lambda body, human IgG1, common heavy chain; CEA arm light chain 1A2 (AC18)
- EC50 [1]: 132 nM
- IC50 [2]: 7 nM

B11: K2AC13 CEAxCD47 bispecific antibody (bispecific antibody, human IgG1, kappa, lambda)
heavy: not shown
light 1: not shown
light 2: QSALTQPASVSGSPGQSITISCTGTSSNVRYAAGVSWYQQHPGKAPKLMIYEVSNRPSGVSNRFSGSKSGNTASLTISGLQAEDEADYYCSSWDFEHGPAAKVFGGGTKLTVLGQPKAAPSVTLFPPSSEELQANKATLVCLISDFYPGAVTVAWKADSSPVKAGVETTTPSKQSNNKYAASSYLSLTPEQWKSHRSYSCQVTHEGSTVEKTVAPTECS
notes: kappa-lambda body, human IgG1, common heavy chain; CEA arm light chain 2B8 (AC13)
- EC50 [1]: 190 nM
- IC50 [2]: 4 nM

Continued by falling IC50 [2], values first:

- EC50 [1]: 52.5 nM
- IC50 [2]: 0.95 nM
B2: K2AC28 CEAxCD47 bispecific antibody (bispecific antibody, human IgG1, kappa, lambda)
heavy: not shown
light 1: not shown
light 2: NFMLTQPHSVSESPGKTVTISCTRSSGSINDITVHWYQQRPGSSPTTVIYGYNARPSGVPDRFSGSIDSSSNSASLTISGLKTEDEADYYCQSWDGHGSAYVFGGGTKLTVLGQPKAAPSVTLFPPSSEELQANKATLVCLISDFYPGAVTVAWKADSSPVKAGVETTTPSKQSNNKYAASSYLSLTPEQWKSHRSYSCQVTHEGSTVEKTVAPTECS
notes: kappa-lambda body, human IgG1, common heavy chain; CEA arm light chain C11 (AC28)

- EC50 [1]: 12.5 nM
- IC50 [2]: 0.86 nM
B1: K2AC27 CEAxCD47 bispecific antibody (bispecific antibody, human IgG1, kappa, lambda)
heavy: not shown
light 1: not shown
light 2: QSVLTQPPSVSGAPGQRVTISCTGSSSNIGYADKVHWYQQLPGTAPKLLIYNNSDRPSGVPDRFSGSKSGTSASLAITGLQAEDEADYYCQSYDGYNMLTAVFGGGTKLTVLGQPKAAPSVTLFPPSSEELQANKATLVCLISDFYPGAVTVAWKADSSPVKAGVETTTPSKQSNNKYAASSYLSLTPEQWKSHRSYSCQVTHEGSTVEKTVAPTECS
notes: kappa-lambda body, human IgG1, common heavy chain; CEA arm light chain 2C11 (AC27)

- EC50 [1]: 14.5 nM
- IC50 [2]: 0.72 nM
B7: K2AC29 CEAxCD47 bispecific antibody (bispecific antibody, human IgG1, kappa, lambda)
heavy: not shown
light 1: not shown
light 2: QSALTQPASVSGSPGQSITISCTGTSSDVEFTNGVSWYQQHPGKAPKLMIYGFSSRPSGVSNRFSGSKSGNTASLTISGLQAEDEADYYCSSYDPPWHLLARVFGGGTKLTVLGQPKAAPSVTLFPPSSEELQANKATLVCLISDFYPGAVTVAWKADSSPVKAGVETTTPSKQSNNKYAASSYLSLTPEQWKSHRSYSCQVTHEGSTVEKTVAPTECS
notes: kappa-lambda body, human IgG1, common heavy chain; CEA arm light chain 2B5 (AC29)

- shift of EC50 of the phagocytosis index curve of MKN-45 cells by 200 ng/mL shed CEA (FIG. 20B) [3]: < 4 fold
- binding result [6]: no binding
- EC50 [1]: 16.5 nM
- EC50 (read off the curve) [7]: ~1 µg/mL
- IC50 [2]: 0.37 nM
B4: K2AC22 CEAxCD47 bispecific antibody (bispecific antibody, human IgG1, kappa, lambda)
heavy: not shown
light 1: not shown
light 2: B3 light 2 with G30A, Y31N, L33I, A51F, G52D, N95S, V98I
notes: kappa-lambda body, human IgG1, common heavy chain; CEA arm light chain 1G6 (AC22)

- EC50 [1]: 1.15 nM
- IC50 [2]: 0.22 nM
B5: K2AC10 CEAxCD47 bispecific antibody (bispecific antibody, human IgG1, kappa, lambda)
heavy: not shown
light 1: not shown
light 2: QSVLTQPPSVSGAPGQRVTISCTGSSSNIYANSNVHWYQQLPGTAPKLLIYSGSNRPSGVPDRFSGSKSGTSASLAITGLQAEDEADYYCQSYDPAHNLLTAVFGGGTKLTVLGQPKAAPSVTLFPPSSEELQANKATLVCLISDFYPGAVTVAWKADSSPVKAGVETTTPSKQSNNKYAASSYLSLTPEQWKSHRSYSCQVTHEGSTVEKTVAPTECS
notes: kappa-lambda body, human IgG1, common heavy chain; CEA arm light chain 1D5 (AC10)

- EC50 [1]: 13 nM
- IC50 [2]: 0.22 nM
B8: K2AC25 CEAxCD47 bispecific antibody (bispecific antibody, human IgG1, kappa, lambda)
heavy: not shown
light 1: not shown
light 2: QSVLTQPPSVSAAPGQKVTISCSGSSSNIGITPVSWYQQLPGTAPKLLIYSNNFRPSGIPDRFSGSKSGTSATLGITGLQTGDEADYYCGTWDRTGHEIRPVFGGGTKLTVLGQPKAAPSVTLFPPSSEELQANKATLVCLISDFYPGAVTVAWKADSSPVKAGVETTTPSKQSNNKYAASSYLSLTPEQWKSHRSYSCQVTHEGSTVEKTVAPTECS
notes: kappa-lambda body, human IgG1, common heavy chain; CEA arm light chain 2F4 (AC25)
